Measurements published in paper PMC5396282, “Characterization of Carboxylic Acid Reductases as Enzymes in the Toolbox for Synthetic Chemistry” (Chemcatchem, 2017).

Experiments:
mpCAR = molecular target: T1, mpCAR (Mycolicibacterium phlei, UniProt A0A5N5VEC4); assay: NADPH oxidation at […] nm, product inhibition kinetics; assay type: biochemical; conditions: pH 7.5, 30 °C, 10 mM MgCl2
T1 construct: gene car; expressed in E. coli BL21(DE3) with B. subtilis Sfp (phosphopantetheinylated); around 130 kDa

COc1ccc(C(=O)O)cc1 = assay: purified protein; conditions: 1 mM ATP, 0.25 mM NADPH, 10 mM MgCl2, 100 mM Tris-HCl pH 7.5, 30 °C
CCCCCCCCCCCC(=O)O [1] = assay: purified protein; assay type: biochemical, Nocardia iowensis; conditions: 1 mM ATP, […] NADPH, 10 mM MgCl2, 100 mM Tris-HCl pH 7.5, 30 °C
O=C(O)/C=C/c1ccccc1 = assay: purified protein; assay type: biochemical, Nocardia iowensis; conditions: 1 mM ATP, […] NADPH, 10 mM MgCl2, 100 mM Tris-HCl pH 7.5, 30 °C
CCCCCCCCCCCC(=O)O [2] = assay: purified protein; conditions: 1 mM ATP, […] NADPH, 10 mM MgCl2, 100 mM Tris-HCl pH 7.5, 30 °C
CCCCCCCCCCCCCCCCCC(=O)O [3] = assay: purified protein; conditions: 1 mM ATP, […] NADPH, 10 mM MgCl2, 100 mM Tris-HCl pH 7.5, 30 °C
CCCCCCCC(=O)O = assay: purified protein; assay type: biochemical, Tsukamurella paurometabola; conditions: 1 mM ATP, […] NADPH, 10 mM MgCl2, 100 mM Tris-HCl pH 7.5, 30 °C
CCCCCCCCCCCC(=O)O [4] = assay: purified protein; assay type: biochemical, Tsukamurella paurometabola; conditions: 1 mM ATP, […] NADPH, 10 mM MgCl2, 100 mM Tris-HCl pH 7.5, 30 °C
CCCCCCCCCCCCCCCCCC(=O)O [5] = assay: purified protein; assay type: biochemical, Tsukamurella paurometabola; conditions: 1 mM ATP, […] NADPH, 10 mM MgCl2, 100 mM Tris-HCl pH 7.5, 30 °C
O=C(O)C#Cc1ccccc1 = assay: purified protein; assay type: biochemical, Tsukamurella paurometabola; conditions: 1 mM ATP, […] NADPH, 10 mM MgCl2, 100 mM Tris-HCl pH 7.5, 30 °C
purified protein [6] = substrate: CCCCCCCC(=O)O; assay: purified protein; conditions: 1 mM ATP, 0.25 mM NADPH, 10 mM MgCl2, 100 mM Tris-HCl pH 7.5, 30 °C
purified protein [7] = substrate: Cc1ccc(C(=O)O)cc1; assay: purified protein; conditions: 1 mM ATP, 0.25 mM NADPH, 10 mM MgCl2, 100 mM Tris-HCl pH 7.5, 30 °C
purified protein [8] = substrate: O=C(O)/C=C/c1ccccc1; assay: purified protein; conditions: 1 mM ATP, 0.25 mM NADPH, 10 mM MgCl2, 100 mM Tris-HCl pH 7.5, 30 °C
purified protein [9] = substrate: CCCCCCCCCCCC(=O)O; assay: purified protein; assay type: biochemical, Mycolicibacterium smegmatis; conditions: 1 mM ATP, […] NADPH, 10 mM MgCl2, 100 mM Tris-HCl pH 7.5, 30 °C

**Q.** How did the Ki (mpCAR; competitive with ATP) turn out when `Nc1ncnc2c1ncn2[C@@H]1O[C@H](COP(=O)(O)O)[C@@H](O)[C@H]1O` [AMP] was run?
**A.** Its Ki is 8200 ± 900 µM.

**Q.** With `NC(=O)c1ccc[n+]([C@@H]2O[C@H](COP(=O)(O)OP(=O)(O)OC[C@H]3O[C@@H](n4cnc5c(N)ncnc54)[C@H](OP(=O)(O)O)[C@@H]3O)[C@@H](O)[C@H]2O)c1` [NADP^+] as the molecule, how does the Ki (mpCAR; competitive with NADPH) read?
**A.** The Ki was 143 ± 8 µM.

**Q.** With `O=P(O)(O)OP(=O)(O)O` [PPi] as the molecule, how does the Ki (mpCAR; mixed inhibition with ATP) read?
**A.** Its Ki is 220 ± 50 µM.

**Q.** Which results are given for niCAR (Nocardia iowensis)?
**A.** Km (COc1ccc(C(=O)O)cc1): 250 ± 10 µM; kcat (COc1ccc(C(=O)O)cc1): 0.817 s⁻¹; kcat/Km (COc1ccc(C(=O)O)cc1): 3330 M⁻¹ s⁻¹; Km (CCCCCCCCCCCC(=O)O [1]): 20 ± 10 µM; kcat (CCCCCCCCCCCC(=O)O [1]): 2.62 ± 0.15 s⁻¹; kcat/Km (CCCCCCCCCCCC(=O)O [1]): 117000 ± 33300 M⁻¹ s⁻¹; Km (O=C(O)/C=C/c1ccccc1): 50 ± 20 µM; kcat (O=C(O)/C=C/c1ccccc1): 0.128 ± 0.0117 s⁻¹; kcat/Km (O=C(O)/C=C/c1ccccc1): 2830 ± 1170 M⁻¹ s⁻¹

**Q.** Which Km (CCCCCCCCCCCC(=O)O [2]) does the source give for noCAR (Nocardia otitidiscaviarum) here?
**A.** The Km was 40 ± 10 µM.

**Q.** And the kcat (CCCCCCCCCCCC(=O)O [2])?
**A.** Its kcat is 1.65 ± 0.05 s⁻¹.

**Q.** And the kcat/Km (CCCCCCCCCCCC(=O)O [2])?
**A.** The kcat/Km was 41700 ± 5000 M⁻¹ s⁻¹.

**Q.** What about the Km (CCCCCCCCCCCCCCCCCC(=O)O [3]) of the same molecule?
**A.** The Km was 20 ± 10 µM.

**Q.** What about the kcat (CCCCCCCCCCCCCCCCCC(=O)O [3]) of the same molecule?
**A.** The kcat was 0.183 ± 0.0167 s⁻¹.

**Q.** What about the kcat/Km (CCCCCCCCCCCCCCCCCC(=O)O [3]) of the same molecule?
**A.** The kcat/Km was 8330 ± 5000 M⁻¹ s⁻¹.

**Q.** What does the source list for “tpCAR (Tsukamurella paurometabola DSM 20162)”?
**A.** Km (CCCCCCCC(=O)O): 200 ± 10 µM; kcat (CCCCCCCC(=O)O): 3.65 ± 0.05 s⁻¹; kcat/Km (CCCCCCCC(=O)O): 19000 ± 833 M⁻¹ s⁻¹; Km (CCCCCCCCCCCC(=O)O [4]): 40 ± 10 µM; kcat (CCCCCCCCCCCC(=O)O [4]): 2.62 ± 0.0833 s⁻¹; kcat/Km (CCCCCCCCCCCC(=O)O [4]): 60000 ± 6670 M⁻¹ s⁻¹; Km (CCCCCCCCCCCCCCCCCC(=O)O [5]): 120 ± 30 µM; kcat (CCCCCCCCCCCCCCCCCC(=O)O [5]): 0.25 ± 0.0167 s⁻¹; kcat/Km (CCCCCCCCCCCCCCCCCC(=O)O [5]): 2000 ± 500 M⁻¹ s⁻¹; Km (O=C(O)C#Cc1ccccc1): 90 ± 20 µM; kcat (O=C(O)C#Cc1ccccc1): 0.1 ± 0.0667 s⁻¹; kcat/Km (O=C(O)C#Cc1ccccc1): 1170 ± 667 M⁻¹ s⁻¹

B1: msCAR (Mycolicibacterium smegmatis MC2 155) (protein)
chain: MTSDVHDATDGVTETALDDEQSTRRIAELYATDPEFAAAAPLPAVVDAAHKPGLRLAEILQTLFTGYGDRPALGYRARELATDEGGRTVTRLLPRFDTLTYAQVWSRVQAVAAALRHNFAQPIYPGDAVATIGFASPDYLTLDLVCAYLGLVSVPLQHNAPVSRLAPILAEVEPRILTVSAEYLDLAVESVRDVNSVSQLVVFDHHPEVDDHRDALARAREQLAGKGIAVTTLDAIADEGAGLPAEPIYTADHDQRLAMILYTSGSTGAPKGAMYTEAMVARLWTMSFITGDPTPVINVNFMPLNHLGGRIPISTAVQNGGTSYFVPESDMSTLFEDLALVRPTELGLVPRVADMLYQHHLATVDRLVTQGADELTAEKQAGAELREQVLGGRVITGFVSTAPLAAEMRAFLDITLGAHIVDGYGLTETGAVTRDGVIVRPPVIDYKLIDVPELGYFSTDKPYPRGELLVRSQTLTPGYYKRPEVTASVFDRDGYYHTGDVMAETAPDHLVYVDRRNNVLKLAQGEFVAVANLEAVFSGAALVRQIFVYGNSERSFLLAVVVPTPEALEQYDPAALKAALADSLQRTARDAELQSYEVPADFIVETEPFSAANGLLSGVGKLLRPNLKDRYGQRLEQMYADIAATQANQLRELRRAAATQPVIDTLTQAAATILGTGSEVASDAHFTDLGGDSLSALTLSNLLSDFFGFEVPVGTIVNPATNLAQLAQHIEAQRTAGDRRPSFTTVHGADATEIRASELTLDKFIDAETLRAAPGLPKVTTEPRTVLLSGANGWLGRFLTLQWLERLAPVGGTLITIVRGRDDAAARARLTQAYDTDPELSRRFAELADRHLRVVAGDIGDPNLGLTPEIWHRLAAEVDLVVHPAALVNHVLPYRQLFGPNVVGTAEVIKLALTERIKPVTYLSTVSVAMGIPDFEEDGDIRTVSPVRPLDGGYANGYGNSKWAGEVLLREAHDLCGLPVATFRSDMILAHPRYRGQVNVPDMFTRLLLSLLITGVAPRSFYIGDGERPRAHYPGLTVDFVAEAVTTLGAQQREGYVSYDVMNPHDDGISLDVFVDWLIRAGHPIDRVDDYDDWVRRFETALTALPEKRRAQTVLPLLHAFRAPQAPLRGAPEPTEVFHAAVRTAKVGPGDIPHLDEALIDKYIRDLREFGLI
notes: expressed in E. coli BL21(DE3) with B. subtilis Sfp (phosphopantetheinylated); one of three M. smegmatis paralogues, distinct from the CAR of Moura et al
**Q.** Which results are given for B1?
**A.** Km (purified protein [6]): 100 ± 10 µM; kcat (purified protein [6]): 4.93 s⁻¹; kcat/Km (purified protein [6]): 50000 M⁻¹ s⁻¹; Km (purified protein [7]): 160 ± 20 µM; kcat (purified protein [7]): 2.57 s⁻¹; kcat/Km (purified protein [7]): 15000 M⁻¹ s⁻¹; Km (purified protein [8]): 75 ± 4 µM; kcat (purified protein [8]): 1.97 s⁻¹; kcat/Km (purified protein [8]): 26700 M⁻¹ s⁻¹; Km (purified protein [9]): 50 ± 10 µM; kcat (purified protein [9]): 2.18 ± 0.0833 s⁻¹; kcat/Km (purified protein [9]): 45000 ± 6670 M⁻¹ s⁻¹
